Data as given in patent US20230414779A1, “ANTIGEN-BINDING FRAGMENTS AND USES THEREOF” (NewSouth Innovations Pty Limited, priority 2020, published 2023).
“Also recorded” adds a separate entry of the source. Where two headings read alike, the source gives them in different places. No end group written: not given here.

T1: FcγRIIA (Homo sapiens, UniProt P12318)
T1 sequence (P12318 34-317): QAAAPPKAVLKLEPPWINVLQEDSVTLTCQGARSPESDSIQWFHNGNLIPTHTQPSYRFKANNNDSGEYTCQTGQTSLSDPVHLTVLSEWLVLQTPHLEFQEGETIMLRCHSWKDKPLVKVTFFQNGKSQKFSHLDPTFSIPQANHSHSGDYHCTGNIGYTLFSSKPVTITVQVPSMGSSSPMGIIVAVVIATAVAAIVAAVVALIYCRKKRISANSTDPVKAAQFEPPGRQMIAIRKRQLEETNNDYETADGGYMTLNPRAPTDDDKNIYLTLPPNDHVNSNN

T2: human Fc gamma receptor IIA (FcγRIIA) (human, UniProt P12318 34-317)
T2 construct: whole, on cells; also called FcgRIIA; CD32a
T2 sequence (looked up): T1 sequence (P12318 34-317)

B1: HRU7: HRU5 linked to bivalirudin (an anticoagulant peptide) by a Ser2Gly12 linker (protein)
scFv: EVQLVESGPELKKPGETVKISCKASGYTFTNYGMNWVKQAPGKGLKWMGWLNTYTGESIYPDDFKGRFAFSLETSASTAYLQINNLKSEDTATYFCARGDYGYDDPLDYWGQGTSVTVSSGGGGWAWVWLTETAVGGGGSDIVMTQAPPSVPVTPGESVSISCRSSKSLLHTNGNTYLHWFLQKPGQSPRLLIYRMSVLASGVPDRFSGSGSGTDFTLKISRVEAEDVGVYYCMQHLEYPLTFGAGTKLEIKRAGGGGSGGGGSGGGGFPRPGGGGNGDFEEIPEEYLHHHHHH
B2: HRU5 (scFv)
scFv: EVQLVESGPELKKPGETVKISCKASGYTFTNYGMNWVKQAPGKGLKWMGWLNTYTGESIYPDDFKGRFAFSLETSASTAYLQINNLKSEDTATYFCARGDYGYDDPLDYWGQGTSVTVSSGGGGWAWVWLTETAVGGGGSDIVMTQAPPSVPVTPGESVSISCRSSKSLLHTNGNTYLHWFLQKPGQSPRLLIYRMSVLASGVPDRFSGSGSGTDFTLKISRVEAEDVGVYYCMQHLEYPLTFGAGTKLEIKRAHHHHHH
modifications: AF488 (fluorescent) label in the flow cytometry binding assays; site not stated
notes: also called HRU5 scFv; Peptide in the linker
B3: HRU5: Humanized variable heavy and variable light chains derived from the IV.3 MoAb linked with a GGGGWAWVWLTETAVGGGGS linker (protein)
scFv: B2 scFv
B4: Humanized scFv (parental scFv) derived from the IV.3 monoclonal antibody (scFv)
scFv: EVQLVESGPELKKPGETVKISCKASGYTFTNYGMNWVKQAPGKGLKWMGWLNTYTGESIYPDDFKGRFAFSLETSASTAYLQINNLKSEDTATYFCARGDYGYDDPLDYWGQGTSVTVSSGGGGSGGGGSGGGGSDIVMTQAPPSVPVTPGESVSISCRSSKSLLHTNGNTYLHWFLQKPGQSPRLLIYRMSVLASGVPDRFSGSGSGTDFTLKISRVEAEDVGVYYCMQHLEYPLTFGAGTKLEIKRAHHHHHH
modifications: AF488 (fluorescent) label in the flow cytometry binding assays; site not stated
notes: Arranged VH-linker-VL; also called HRU4
B5: parental scFv: Humanized scFv derived from anti-FcγRIIA IV.3 monoclonal antibody, VH and VL joined by flexible GGGGS linker (protein)
scFv: B4 scFv

Key:
FcγRIIA = target: T1, FcγRIIA; experiment: Binding of the linker peptide alone; settings: source not stated
human platelets [1] = type: cell-based; settings: for Inhibition of platelet aggregation of HIT-antibody: concentration giving inhibition; for inhibition of HIT serum induced aggregation: 40 nM, human platelets, HIT serum and heparin; for EC50: HRU5 relative to the parental scFv, read-out: activity (effective concentration)
Method: Platelet aggregation assays were performed by mixing samples at 1200 rpm, 37° C. for up to 25 min in an aggregometer (Chrono-log Aggro/Link™). The reaction mixture (500 μl) consisted of 300 μl of healthy donor PRP, HIT patient serum or purified Total HIT IgG (up to 14 μM, adjusted according to different donor platelets), heparin (0.5 IU/ml) and various concentrations of HRU5-HRU7. The degree of aggregation was determined by the increase in light transmittance. Platelet aggregation levels over 20% were considered positive.
With antibody/IC-induced platelet aggregation, time delay (time lapse) is a more sensitive measure of platelet aggregability compared with the extent of platelet aggregation as different antibodies invariably cause the same maximum extent of platelet aggregation after variable time delays or time lapses (as illustrated in FIG. 2B). Various concentrations of parental scFv, HRU5 or HRU6 were used. Plots were fitted to non-linear regression analysis (sigmoidal dose-response curves) (FIG. 2C). […] Here, the degree of inhibition of platelet aggregation was determined at various concentrations and analysed as shown in FIG. 2D.
Inhibition of platelet aggregation of HIT-antibody by HRU5 ˜3.5 mg/ml.

human platelets [2] = experiment: Platelet binding, flow cytometry (platelet-based fluorescent assay); settings: for binding to human platelets: labelled scFvs, flow cytometry, in words; for Kd: binding to human platelets, non-linear regression, one-site specific binding (FIG. 1D)
Method: FIG. 1D provides graphs of platelet-based fluorescent assay measurements with KD and R^2 values for the parental scFv, HRU5 and HRU6. Non-linear regression analysis (one-site specific binding) was used to determine KD and R^2 values. GMF, geometric mean fluorescence.
(§1) Platelet-rich plasma (PRP) was obtained from whole blood after centrifugation at 200×g for 10 min. Washing/Suspension buffer (PBS, 0.5% BSA, 25 mM EDTA, pH 6.8) was used for platelet preparation throughout the experiment. 4 μl of PRP was incubated with various concentrations of fluorescently labelled HRU molecules for 30 min. Cells were washed once with 500 μl of buffer (PBS, 0.5% BSA, 25 mM EDTA, pH 6.8), suspended in 200 μl of PBS and analysed by flow cytometry (Cantoll, BD Biosciences).

thrombin = target: T3, thrombin (Homo sapiens, UniProt P00734); experiment: Thrombin time assay in plasma; type: biochemical; settings: undiluted plasma, increasing concentrations, in words
T3 construct: purchased Diagnostica STAGO S.A.A
Method: FIG. 3B is a graph of a Thrombin Time Delay assay for HRU6 and HRU7. Increasing concentrations of HRU molecules were incubated with undiluted plasma prepared from ACD anticoagulated blood. Clotting time of control plasma (untreated plasma) is shown corresponding to 0 concentration (closed circle). […] Clotting time is shown in sec.
The STA-Thrombin kit (Diagnostica STAGO S.A.A.) was used for the determination of the thrombin time by a haemostasis analyser. Plasma was prepared from ACD anticoagulated normal blood by centrifugation for 10 min at 2500×g. 500 μl of undiluted plasma, in the absence and presence of different inhibitor concentrations (e.g., HRU6 and HRU7), was analysed. Thrombin time of the plasma was determined by the analyser.
HRU6 and HRU7 also contain anti-thrombin activity provided by the lepirudin and bivalirudin moieties respectively. The Hemoclot thrombin inhibitor assay was used to determine the anti-clotting activity. The normal clotting time range is 15-24 sec.

platelets [3] = experiment: Thrombin-induced platelet aggregation; type: cell-based, human; settings: 0.3 U of thrombin
Description: For thrombin induced platelet aggregation samples were mixed as described above in the presence of 0.3 U of thrombin.

platelets [4] = experiment: Serotonin release assay (platelet activation); type: cell-based, human; settings: 0.1 IU/ml heparin; induced by KKO (FIG. 4) / HIT serum
Description: FIG. 4 is a graph of the serotonin release assay. Serotonin release was induced by a HIT-like monoclonal antibody (KKO) and was inhibited by parental scFv, HRU5, HRU6 or HRU7. Heparin was used at therapeutic low concentrations (L, 0.1 U) and at inhibitory high concentration (H,100 U). Dotted lines denote 0% and 20% CPMA. Values over 20% are considered positive. CPMA, counts per minute.
SRA is the gold standard to confirm the presence of platelet-activating HIT antibodies. Platelets from a healthy donor were labelled with Hydroxytryptamine Binoxalate, 5-[2-^14C]-(Serotonin) (^14C-5HT) (1.5 μl/ml) and mixed with heparin (0.1 (low dose) or 100 IU/ml (high dose)) in the presence of HIT serum. The protein of interest was then added to the reaction and incubated at room temperature for 1 h. After centrifugation the supernatant was collected and the ^14C-serotonin released was measured in a scintillation counter. The percentage of ^14C-serotonin released was calculated by determining the proportion in the supernatant relative to the remaining ^14C-serotonin in platelets. A test result is defined as positive if more than 20% serotonin release is detected with a therapeutic heparin concentration of (0.1 IU/ml) but not with a high dose of heparin (100 IU/ml).

[5] = target: T2, human Fc gamma receptor IIA (FcγRIIA); experiment: platelet-based fluorescent assay (flow cytometry), one-site specific binding fit
Method: as §1

[6] = tested on: FcγRIIA/hPF4 double transgenic mice; experiment: Animal model of HIT (KKO plus heparin), lung thrombi by fluorescence; type: in vivo, mouse; settings: 3.49×10^−11 moles per gram (~1 microgram/g)
Method: The mice used in these experiments were described in Reilly et al., “Heparin-induced thrombocytopenia/thrombosis in a transgenic mouse model requires human platelet factor 4 and platelet activation through FcγRIIA” Blood. 2001; 98(8):2442-2447. Animals were injected intravenously (iv) with HIT-like MoAb KKO. Heparin was injected intraperitoneally at 1 U/g following IgG injection. In some experiments, HRU molecules were also injected via the iv route. For in vivo platelet labelling anti-CD42c-Dylight649 (Emfret) was injected iv at 1 μg/g. Platelet counts were measured before treatment and at 1 h, 3 h and 5 h following treatment. Lungs were harvested 4 h after treatment, fixed in formalin and scanned for fluorescence in an IVIS Lumina Spectrum CT Spectrometer (PerkinElmer).
Mouse platelets were labeled in vivo with anti CD42c-Dylight649 antibody. The animals were treated with the HIT-like monoclonal antibody KKO plus heparin in the absence (vehicle) or presence of 3.49×10^−11 moles per gram (˜1 microgram/g) of parental scFv or HRU5. Fixed lungs from these mice were scanned with an IVIS Lumina Spectrum CT. There was clear accumulation of florescence in lungs treated with KKO plus vehicle, indicative of the presence of platelet rich thrombi. […] This finding is consistent with the findings of the in vitro experiments and microfluidics studies. […]

[7] = target: T2, human Fc gamma receptor IIA (FcγRIIA); experiment: cell-based or functional assay
[8] = tested on: FcγRIIa+/hPF4+ mouse lungs; experiment: Platelet accumulation in FcγRIIa+/hPF4+ mouse lungs (FIG. 8); type: in vivo
Description: FIG. 8 is a graph of radiant efficiency showing the level of platelet accumulation in FcγRIIa+/hPF4+ mouse lungs.

Row | Molecule | Inhibition of platelet aggregation of HIT-antibody (human platelets [1]; serum from a HIT patient) | binding to human platelets (human platelets [2]) | thrombin clotting time (thrombin) | 14C-serotonin release (platelets [4]) | Kd [5] | Kd (human platelets [2]) | inhibition of HIT serum induced aggregation (human platelets [1]) | EC50 (human platelets [1]) | inhibition of thrombus accumulation in lungs [6] | also measured
1 | WAWVWLTETAV [FcγRIIA binding peptide, reference compound] | 100 µM | – | – | – | – | – | – | – | – | Kd (FcγRIIA): 500 nM; IC50 (human platelets [1]): 55 µM; capacity to inhibit HIT serum-induced aggregation (human platelets [1]; peptide alone, FIG. 10): low; IC50 of peptide versus EC50 of the parental scFv (human platelets [1]; printed as '3,000 times lower'): 3,000 times
2 | B1 | – | stronger binding to human platelets than expected | significant increases in thrombin clotting time; also recorded: prolong clotting time in a dose-dependent manner | inhibited | – | – | – | – | – | inhibition of thrombin-induced platelet aggregation (platelets [3]): inhibit thrombin-induced platelet aggregation in a dose dependent manner
3 | B2 | – | – | – | – | 282 nM | – | – | – | – | –
4 | B3 | ~3.5 mg/mL | strong binding to platelets | did not influence clotting time; also recorded: does not prolong clotting time | inhibited | – | 298 nM | completely inhibited | 0.0088 µM | inhibition of thrombus accumulation; also recorded: Clot inhibition was much greater in mice treated with HRU5 than with parental scFv | activity relative to the parental scFv (EC50 and IC50) (human platelets [1]; HIT serum-induced platelet aggregation, in words): increase in activity; Inhibition of platelet aggregation of HIT-antibody (human platelets [1]; converted from mg/ml): ~0.09386 µM
5 | B4 | – | – | – | – | 298 nM | – | – | – | – | EC50 (platelet aggregation induced by HIT serum) [7]: 18 nM
6 | B5 | – | – | – | inhibited | – | 282 nM | completely inhibited | 55 µM | inhibition of thrombus accumulation | inhibition of thrombosis (platelet accumulation in lungs, radiant efficiency) [8]: strong inhibition of thrombosis
